# Columns and labels:
# [1] = molecular target: protofibrillar (PF) form of Aβ42 (human); assay: SPR (BIAcore), ratio of PF binding to LMW binding
# [2] = molecular target: protofibrillar (PF) form of Aβ42 (human); assay: SPR (BIAcore), antibody immobilized, PF Aβ42 injected
# [3] = molecular target: low-molecular weight (LMW) form of Aβ42 (human); assay: SPR (BIAcore), antibody immobilized, LMW Aβ42 injected
# Chain of low-molecular weight (LMW) form of Aβ42 (human) (peptide, as listed by the source): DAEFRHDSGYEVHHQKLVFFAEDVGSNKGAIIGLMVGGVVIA
# Chain of protofibrillar (PF) form of Aβ42 (human) (peptide, as listed by the source): as above
Ratio (PF/LMW) [1],BIACORE Binding Analysis PF [2],BIACORE Binding Analysis LMW [3],Substance
0.9,403,425,3D6 anti-Aβ antibody
1.4,541,400,6E10 (antibody)
1,68.4,69.9,82E1 (antibody)
1.5,340,229,monoclonal antibody 4G8
